± gives the half width of the 95% confidence interval.
Tests used:
[1] = folding stability dG unfold (combined trypsin and chymotrypsin); higher = more stable
Summary of the method: (§1)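 Mini-proteins designed to be under 80 residues and free of cysteine were carried in a PA-tagged cDNA display construct and digested with trypsin and with chymotrypsin. Each protease was applied at 11 threefold-diluted concentrations, alongside a no-protease condition, before sequencing. K50 came from Bayesian fitting of the sequencing counts, and unfolding free energy was obtained by comparing it with a sequence-predicted unfolded-state K50 and a shared folded-state K50, for each protease separately or for both together. Designs were retained only if their AlphaFold2 dimer inter-PAE exceeded 15.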

[2] = folding stability dG unfold from chymotrypsin proteolysis; higher = more stable
Summary of the method: as §1

[3] = folding stability dG unfold from trypsin proteolysis; higher = more stable
Summary of the method: as §1

Sequence	folding stability dG unfold [1] [kJ/mol]	folding stability dG unfold [2] [kJ/mol]	folding stability dG unfold [3] [kJ/mol]
SAGGSAGGSAKPKITVTVEEVTNEDGSTYYRATARIEETGRTIEIYVRRDDLGKPVAIKITSAGGSAGGSAG [r3_432_TrROS_Hall]	9.13 ± 0.502	10.1 ± 0.356	7.61 ± 0.243
SAGGSAGGSAKPKLHIHILTAGPFEELAELLEELAKRIFPPELEIDIHIHYIPKELLHPELGSAGGSAGGSA [r18_498_TrMRF]	10.8 ± 0.322	10.5 ± 0.172	11.5 ± 0.628
SAGGSAGGSAKPNNAELVKVTYDPETGDFYAFYKIKNTDTVYVLRFNKDGTVEVKEYKFSEASAGGSAGGSA [r18_521_TrMRF]	15.4 ± 0.711	16.5 ± 0.335	12.4 ± 0.879
SAGGSAGGSAKPTFDNVENLSLEELAKKIAKEAAEKYPDAKNVEVEFRLPNGKSYRIVVDVDSAGGSAGGSA [r18_449_TrMRF]	5.27 ± 0.402	5.28 ± 0.502	5.08 ± 0.151
SAGGSAGGSAKRKVIEVDSLEEIKKAIEEAKEGEVVEIVVRDPETNETYTLKVVDGKIVLIPSAGGSAGGSA [r18_407_TrROS_Hall]	9.48 ± 0.205	11.15 ± 0.0586	5.53 ± 0.163
SAGGSAGGSAKSVVRIKIYNKKTGKVLEIEIPENMTEEEIKKLAEELAKKNNVEIVEVEKVPSAGGSAGGSA [r18_322_TrROS_Hall]	11 ± 0.502	12.5 ± 0.213	7.65 ± 0.213
SAGGSAGGSAKTITITFLFDSPENAKDFVREIAQEDGMKIKVEWERDPEGWWWVTATIEVPSAGGSAGGSAG [r3_273_TrROS]	13.1 ± 0.628	14.6 ± 0.544	9.89 ± 0.418
SAGGSAGGSAKVVVDEVEVEVFKNEDGEEVLRVRFKKTGEEVEIPLEDLEKLELPPGAVVEPSAGGSAGGSA [r18_288_TrROS_Hall]	5.9 ± 0.293	7.69 ± 0.209	1.03 ± 0.146
SAGGSAGGSAKYLVVGGKVIEIPSGGDAKIETTKDDRVKVTIDLPDDRKLEFTFPVPKWVGSAGGSAGGSAG [r3_207_TrMRF]	1.71 ± 0.293	0.898 ± 0.414	2.15 ± 0.121
SAGGSAGGSALAEELAAKYPGLQVEVTRVEVEREVTDADGRKRTERVERLEIRVVKPGEELSAGGSAGGSAG [r3_358_TrROS_Hall]	0.688 ± 0.753	-0.24 ± 0.251	2.09 ± 0.142
SAGGSAGGSALDSLVPDIDLRVRVEPVPDDPSILRADVELSDGLVLEVEFLPSGVARVSLSGKGSAGGSAGG [r6_122_TrMRF]	-0.388 ± 0.243	-1.03 ± 0.46	-0.129 ± 0.351
SAGGSAGGSALIIVAPDGFIISIEWPNGKPRTIMMPPDEIDEILEDDGIKDIEIQKLPPGASAGGSAGGSAG [r3_141_TrROS]	4.79 ± 0.31	6.22 ± 0.151	1.62 ± 0.209
SAGGSAGGSALKPNETATIRILTTAPDGKPYVLVVEVRVLPDGGVEVLGYKLVTLSDLEKNSAGGSAGGSAG [r3_212_TrMRF]	13.9 ± 0.46	15.7 ± 0.343	10.6 ± 0.46
SAGGSAGGSALPLPPDQRLYVFRDPEGDLYLVRFEDGSEVRTSLKAEDLEKLGVPVVDIGDLSAGGSAGGSA [r18_125_TrMRF]	6.96 ± 0.134	6.24 ± 0.155	7.25 ± 0.146
SAGGSAGGSAMEELVKEAIKEGKPGEVVLIRNEDGSVFALTVKDGKIEIKKLEEVKEVVEESAGGSAGGSAG [r3_244_TrROS_Hall]	4.82 ± 0.711	4.44 ± 0.389	6.05 ± 0.377
SAGGSAGGSAMEIEIEIEIPVPVPGGVPSPENPEVAEERAEEIKEKYAKEGLKVKVKITVVSAGGSAGGSAG [r3_258_JUSTAS]	4.46 ± 1.26	4.71 ± 0.255	5.1 ± 0.879
SAGGSAGGSAMELVVKEVEYRGPLSLSIEEIAEEIEKKEGIKVIELEEYPDEKVKITIEKVSAGGSAGGSAG [r3_66_JUSTAS]	2.03 ± 0.795	3.2 ± 0.502	-1.94 ± 0.669
SAGGSAGGSAMITIKVSPDVPVPSNTPITLPNGKKVKATVTPVPSPEDGTPVLKITLDPNLISAGGSAGGSA [r18_476_JUSTAS]	1.87 ± 0.184	3.73 ± 0.0962	-3.91 ± 1
